Test results reported in patent US20260139033A1 (PRANA THERAPIES, published 2026).

B1: dupilumab (antibody, V domains shown)
VH: EVQLVESGGGLEQPGGSLRLSCAGSGFTFRDYAMTWVRQAPGKGLEWVSSISGSGGNTYYADSVKGRFTISRDNSKNTLYLQMNSLRAEDTAVYYCAKDRLSITIRPRYYGLDVWGQGTTVTVS
VL: DIVMTQSPLSLPVTPGEPASISCRSSQSLLYSIGYNYLDWYLQKSGQSPQLLIYLGSNRASGVPDRFSGSGSGTDFTLKISRVEAEDVGFYYCMQALQTPYTFGQGTKLEIK
B2: Candidate-23: Dupilumab-YTE_Linker-GS4_TSLP TRAP 1 (bispecific antibody, human IgG4 S228P, kappa)
heavy: EVQLVESGGGLEQPGGSLRLSCAGSGFTFRDYAMTWVRQAPGKGLEWVSSISGSGGNTYYADSVKGRFTISRDNSKNTLYLQMNSLRAEDTAVYYCAKDRLSITIRPRYYGLDVWGQGTTVTVSSASTKGPSVFPLAPCSRSTSESTAALGCLVKDYFPEPVTVSWNSGALTSGVHTFPAVLQSSGLYSLSSVVTVPSSSLGTKTYTCNVDHKPSNTKVDKRVESKYGPPCPPCPAPEFLGGPSVFLFPPKPKDTLYITREPEVTCVVVDVSQEDPEVQFNWYVDGVEVHNAKTKPREEQFNSTYRVVSVLTVLHQDWLNGKEYKCKVSNKGLPSSIEKTISKAKGQPREPQVYTLPPSQEEMTKNQVSLTCLVKGFYPSDIAVEWESNGQPENNYKTTPPVLDSDGSFFLYSRLTVDKSRWQEGNVFSCSVMHEALHNHYTQKSLSLSLGGGGGSGGGGSGGGGSGGGGSGAAEGVQIQIIYFNLETVQVTWNASKYSRTNLTFHYRFNGDEAYDQCTNYLLQEGHTSGCLLDAEQRDDILYFSIRNGTHPVFTASRWMVYYLKPSSPKHVRFSWHQDAVTVTCSDLSYGDLLYEVQYRSPFDTEWQSKQENTCNVTIEGLDAEKCYSFWVRVKAMEDVYGPDTYPSDWSEVTCWQRGEIRDACAETPTPPKPKLSKGGSGGSGGSGGSGGSGGSGGSGGSGGSGGSGGSGGSGGSGGSGGSGGSGGSGGSGGSGGSESGYAQNGDLEDAELDDYSFSCYSQLEVNGSQHSLTCAFEDPDVNITNLEFEICGALVEVKCLNFRKLQEIYFIETKKFLLIGKSNICVKVGEKSLTCKKIDLTTIVKPEAPFDLSVVYREGANDFVVTFNTSHLQKKYVKVLMHDVAYRQEKDENKWTHVNLSSTKLTLLQRKLQPAAMYEIKVRSIPDHYFKGFWSEWSPSYYFRTPEINNSSGEMD
light: DIVMTQSPLSLPVTPGEPASISCRSSQSLLYSIGYNYLDWYLQKSGQSPQLLIYLGSNRASGVPDRFSGSGSGTDFTLKISRVEAEDVGFYYCMQALQTPYTFGQGTKLEIKRTVAAPSVFIFPPSDEQLKSGTASVVCLLNNFYPREAKVQWKVDNALQSGNSQESVTEQDSKDSTYSLSSTLTLSKADYEKHKVYACEVTHQGLSSPVTKSFNRGEC
notes: The chains here are built from the component entries; TRAP sits at the C-terminus of the heavy chain
B3: Candidate-5 (TRAP-2) (other)
heavy chain with C-terminal TSLP TRAP 2 (palivizumab-YTE heavy chain, first linker, TSLP-TRAP): QVTLRESGPALVKPTQTLTLTCTFSGFSLSTSGMSVGWIRQPPGKALEWLADIWWDDKKDYNPSLKSRLTISKDTSANQVVLKVTNMDPADTATYYCARSMITNWYFDVWGAGTTVTVSSASTKGPSVFPLAPCSRSTSESTAALGCLVKDYFPEPVTVSWNSGALTSGVHTFPAVLQSSGLYSLSSVVTVPSSSLGTKTYTCNVDHKPSNTKVDKRVESKYGPPCPPCPAPEFLGGPSVFLFPPKPKDTLYITREPEVTCVVVDVSQEDPEVQFNWYVDGVEVHNAKTKPREEQFNSTYRVVSVLTVLHQDWLNGKEYKCKVSNKGLPSSIEKTISKAKGQPREPQVYTLPPSQEEMTKNQVSLTCLVKGFYPSDIAVEWESNGQPENNYKTTPPVLDSDGSFFLYSRLTVDKSRWQEGNVFSCSVMHEALHNHYTQKSLSLSLGGGGGSGGGGSGGGGSGGGGSESGYAQNGDLEDAELDDYSFSCYSQLEVNGSQHSLTCAFEDPDVNITNLEFEICGALVEVKCLNFRKLQEIYFIETKKFLLIGKSNICVKVGEKSLTCKKIDLTTIVKPEAPFDLSVVYREGANDFVVTFNTSHLQKKYVKVLMHDVAYRQEKDENKWTHVNLSSTKLTLLQRKLQPAAMYEIKVRSIPDHYFKGFWSEWSPSYYFRTPEINNSSGEMDGGSGGSGGSGGSGGSGGSGGSGGSGGSGGSGGSGGSGGSGGSGGSGGSGGSGGSGGSGGSGAAEGVQIQIIYFNLETVQVTWNASKYSRTNLTFHYRFNGDEAYDQCTNYLLQEGHTSGCLLDAEQRDDILYFSIRNGTHPVFTASRWMVYYLKPSSPKHVRFSWHQDAVTVTCSDLSYGDLLYEVQYRSPFDTEWQSKQENTCNVTIEGLDAEKCYSFWVRVKAMEDVYGPDTYPSDWSEVTCWQRGEIRDACAETPTPPKPKLSK
light chain: DIQMTQSPSTLSASVGDRVTITCKCQLSVGYMHWYQQKPGKAPKLLIYDTSKLASGVPSRFSGSGSGTAFTLTISSLQPDDFATYYCFQGSGYPFTFGGGTKLEIKRTVAAPSVFIFPPSDEQLKSGTASVVCLLNNFYPREAKVQWKVDNALQSGNSQESVTEQDSKDSTYSLSSTLTLSKADYEKHKVYACEVTHQGLSSPVTKSFNRGEC
notes: Monospecific TSLP-TRAP complex on palivizumab (human IgG4 S228P, YTE)
B4: Candidate-25 (TRAP-2) (bispecific antibody, human IgG4 S228P, kappa)
heavy chain: EVQLVESGGGLEQPGGSLRLSCAGSGFTFRDYAMTWVRQAPGKGLEWVSSISGSGGNTYYADSVKGRFTISRDNSKNTLYLQMNSLRAEDTAVYYCAKDRLSITIRPRYYGLDVWGQGTTVTVSSASTKGPSVFPLAPCSRSTSESTAALGCLVKDYFPEPVTVSWNSGALTSGVHTFPAVLQSSGLYSLSSVVTVPSSSLGTKTYTCNVDHKPSNTKVDKRVESKYGPPCPPCPAPEFLGGPSVFLFPPKPKDTLYITREPEVTCVVVDVSQEDPEVQFNWYVDGVEVHNAKTKPREEQFNSTYRVVSVLTVLHQDWLNGKEYKCKVSNKGLPSSIEKTISKAKGQPREPQVYTLPPSQEEMTKNQVSLTCLVKGFYPSDIAVEWESNGQPENNYKTTPPVLDSDGSFFLYSRLTVDKSRWQEGNVFSCSVMHEALHNHYTQKSLSLSLG
light chain with N-terminal TSLP TRAP 2 (TSLP-TRAP, first linker, dupilumab-YTE light chain): ESGYAQNGDLEDAELDDYSFSCYSQLEVNGSQHSLTCAFEDPDVNITNLEFEICGALVEVKCLNFRKLQEIYFIETKKFLLIGKSNICVKVGEKSLTCKKIDLTTIVKPEAPFDLSVVYREGANDFVVTFNTSHLQKKYVKVLMHDVAYRQEKDENKWTHVNLSSTKLTLLQRKLQPAAMYEIKVRSIPDHYFKGFWSEWSPSYYFRTPEINNSSGEMDGGSGGSGGSGGSGGSGGSGGSGGSGGSGGSGGSGGSGGSGGSGGSGGSGGSGGSGGSGGSGAAEGVQIQIIYFNLETVQVTWNASKYSRTNLTFHYRFNGDEAYDQCTNYLLQEGHTSGCLLDAEQRDDILYFSIRNGTHPVFTASRWMVYYLKPSSPKHVRFSWHQDAVTVTCSDLSYGDLLYEVQYRSPFDTEWQSKQENTCNVTIEGLDAEKCYSFWVRVKAMEDVYGPDTYPSDWSEVTCWQRGEIRDACAETPTPPKPKLSKGGGGSGGGGSGGGGSGGGGSDIVMTQSPLSLPVTPGEPASISCRSSQSLLYSIGYNYLDWYLQKSGQSPQLLIYLGSNRASGVPDRFSGSGSGTDFTLKISRVEAEDVGFYYCMQALQTPYTFGQGTKLEIKRTVAAPSVFIFPPSDEQLKSGTASVVCLLNNFYPREAKVQWKVDNALQSGNSQESVTEQDSKDSTYSLSSTLTLSKADYEKHKVYACEVTHQGLSSPVTKSFNRGEC
notes: also called Light chain N-terminal TRAP: TSLP TRAP 2_Linker-GS4_Dupilumab-YTE [2 x TRAP 2]

Experiments:
[1] = target: IL-4R on human donor PBMC (B-cells) (human, UniProt P24394 26-825); experiment: cell-based or functional assay
recombinant human TSLP [2] = target: T1, recombinant human TSLP (human, UniProt Q969D9 29-159); experiment: SPR; column 'SPR (Biophysical binding): TSLP (pM)'
T1 construct: also called thymic stromal lymphopoietin
Procedure: (§1) SPR studies were carried out on a Biacore 3000 instrument with a CM5 chip at 25° C. The running buffer comprised 25 mM Hepes, pH 7.5, 150 mM NaCl, 0.5 mg/ml BSA, 0.005% P20. Antibodies were captured via protein A using approximately a 1/50 dilution of each antibody in the running buffer and a 2-minute contact time at a 10 μl/min flow rate. Protein A was immobilized on a CM5 chip via standard amine coupling chemistry in 10 mM acetate pH 4.5. Approximately 800 RU of each antibody was captured. The surfaces were regenerated via a 10 mM glycine pH 1.5 between cycles. Between assays the chip was regenerated with a 2-minute pulse of 100 mM Phosphoric acid. Prior to setting up multicycle kinetic analysis analyte concentration was determined spectrophotometrically using an extinction coefficient of 72,880 M⁻¹ cm⁻¹ for IL4R and 18450 M⁻¹ cm⁻¹ for the TSLP proteins respectively. Analyte samples were prepared by diluting stocks into running buffer to a final concentration of 500 nM for the IL-4R and 25 nM for TSLP followed by serially diluting with a 2-fold series with an association time of 2.5 minutes at a 50 μl/min flow rate. Dissociation data was collected for a period of 1600 seconds. Raw data was analyzed using the Scrubber2 (Biologic Software, AU) program using a double referencing procedure where compound signal is corrected to a blank surface and a buffer injection over the captured antibody surface. Kinetic data was analyzed by fitting to a simple 1:1 binding model. […] The candidates are further described in Table 3.

recombinant human TSLP [3] = target: T1, recombinant human TSLP; experiment: SPR (Biacore 3000, CM5 chip, 25 C): complex captured via protein A, TSLP as analyte, 1:1 fit; column 'TSLP binding(pM)'
Procedure: as §1

recombinant human TSLP [4] = target: T1, recombinant human TSLP; experiment: cell-based or functional assay

Row | Binder | IC50, IL-4 biological assay (CD23 upregulation in PBMCs) [1] [nM] | Kd (recombinant human TSLP [2]) [nM] | Kd (recombinant human TSLP [3]) [nM] | IC50, upregulation of CD23 in response to IL-4 in PBMCs [1] [nM] | IC50, TARC secretion in response to TSLP in PBMCs (recombinant human TSLP [4]) [nM]
1 | B1 | 4.7 | – | – | – | –
2 | B2 | – | 0.0259 | 0.0259 | 17.1 | 1.7
3 | B3 | – | – | 0.0013 | – | –
4 | B4 | – | – | 0.0166 | – | –
